What was measured:
[1] = target: Tag-free recombinant human EGFR (Homo sapiens (Human).) (UniProt P00533); assay: ELISA; sandwich ELISA for bispecificity: tag-free EGFR, HER2 or HER3 coated at 1000 ng/ml in PBS; dilutions of BiXAb™ in PBS, 37°C, 1 h; then 1000 ng/ml of the His-tagged second receptor, 37°C, 1 h; detected with peroxidase-conjugated anti-His tag antibody
[2] = target: Tag-free recombinant human HER3 ECD (Homo sapiens (Human).) (UniProt P21860); assay: as above

- EC50 [1]: 170 nM
- EC50 [2]: 0.55 nM
Substance: BiXAb™ 3Patri-1Matu-Fc (bispecific antibody)

— paper PMC10157173
